This passage reports Kd results from patent US7041806.

Assay [1] has as its target UNC5H-1 (rat homologue of UNC-5) (rat) (UniProt O08721). The assay is described as follows: equilibrium binding, curves fitted to the Hill equation.
In assay [2] the target is UNC5H-2 (rat homologue of UNC-5) (rat) (UniProt O08722). Described as above.

Chain of UniProt O08721 (O08721 26-898 limits assumed, form in doubt): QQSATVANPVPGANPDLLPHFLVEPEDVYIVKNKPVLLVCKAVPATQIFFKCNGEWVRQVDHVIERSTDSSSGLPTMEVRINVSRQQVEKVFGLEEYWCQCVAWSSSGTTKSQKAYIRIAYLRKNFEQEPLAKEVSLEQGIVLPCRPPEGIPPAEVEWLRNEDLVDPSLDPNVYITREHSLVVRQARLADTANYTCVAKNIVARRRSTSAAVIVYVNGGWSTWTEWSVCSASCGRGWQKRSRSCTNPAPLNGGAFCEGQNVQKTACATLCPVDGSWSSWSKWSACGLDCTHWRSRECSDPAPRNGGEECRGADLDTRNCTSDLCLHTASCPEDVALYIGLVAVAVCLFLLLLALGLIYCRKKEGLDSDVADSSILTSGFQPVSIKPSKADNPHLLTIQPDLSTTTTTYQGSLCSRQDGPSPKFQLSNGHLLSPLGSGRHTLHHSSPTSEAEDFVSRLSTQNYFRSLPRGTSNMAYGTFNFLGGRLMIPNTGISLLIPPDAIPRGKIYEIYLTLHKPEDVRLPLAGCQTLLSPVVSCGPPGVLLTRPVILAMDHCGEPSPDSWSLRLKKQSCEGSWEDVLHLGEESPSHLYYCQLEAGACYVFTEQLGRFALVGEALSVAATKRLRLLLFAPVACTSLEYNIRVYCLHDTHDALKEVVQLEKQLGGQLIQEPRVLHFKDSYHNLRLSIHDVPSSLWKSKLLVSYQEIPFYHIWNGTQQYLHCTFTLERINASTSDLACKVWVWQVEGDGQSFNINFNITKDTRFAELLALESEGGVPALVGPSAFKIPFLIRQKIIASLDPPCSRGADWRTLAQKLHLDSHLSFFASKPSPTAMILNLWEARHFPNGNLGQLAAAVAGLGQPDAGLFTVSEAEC

Take netrin(VIoV)-Fc (Fc fusion): the Kd stood at 0.019 µM in assay [1] and 0.0034 µM in assay [2].

As a reminder, the Kd is the free concentration of one partner at which half of the binding sites on the other are occupied at equilibrium, for simple one-to-one binding.
